Test results as given in patent US20240368263A1 (PROMETHEUS BIOSCIENCES, published 2024).

What was measured:
[1] = target: T1, membrane-associated human TL1A on transfected HEK293 cells (human, UniProt O95150 1-251); assay: flow cytometry, HEK293 cells transfected with human TL1A
T1 construct: whole, on cells
T1 sequence (looked up): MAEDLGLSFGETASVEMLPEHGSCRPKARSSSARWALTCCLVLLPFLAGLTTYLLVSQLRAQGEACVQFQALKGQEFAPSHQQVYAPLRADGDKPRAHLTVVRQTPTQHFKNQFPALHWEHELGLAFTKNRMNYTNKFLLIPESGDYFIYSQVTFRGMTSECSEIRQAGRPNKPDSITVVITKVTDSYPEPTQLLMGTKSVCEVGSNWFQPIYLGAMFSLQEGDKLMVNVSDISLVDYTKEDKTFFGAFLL
Description: All the Fab variants were tested for binding to membrane-associated human TL1A. For these studies a HEK293 cell line that had been transfected with human TL1A was used. The 293 cells expressing membrane bound human TL1A were maintained in DMEM containing L-glutamine, glucose, sodium pyruvate, and phenol red (ThermoFisher cat #11995-065) plus 10% fetal bovine serum, 1X penicillin-streptomycin (Fisher cat #15140122) and 2 μg/ml puromycin (Gibco cat #A11138-03) in a 37° C. incubator with 5% CO2. Three days prior to the assay, a T-75 flask was seeded with 3×10⁶ cells so that the flask was 90-95% confluent on the day of the assay. The media was aspirated and the cell monolayer was gently washed with 5 ml PBS. Adherent cells were removed by repeatedly pipetting 10 ml ice cold 1% BSA/PBS against the monolayer. The cells were counted and 5×10⁵ were aliquoted for each sample to be analyzed. The cells were collected by centrifuging at 300× g at 4° C. for 5 minutes and the wash was discarded. The cells were resuspended in 100 μl Fab or IgG diluted in 1% BSA/PBS and placed on ice for 30 min. Next, the cells were washed with 1 ml 1% BSA/PBS and collected by centrifuging at 300× g at 4° C. for 5 min. The wash was discarded and 100 μl secondary goat F (ab′) 2 anti-human kappa FITC (Southern Biotech cat #2062-02) or goat F (ab′) 2 anti-human IgG PE (Southern Biotech cat #2043-09) conjugate, diluted 1:200 in BSA/PBS was added. Cells were placed on ice for 30 min. Finally, the cells were washed with 1 ml BSA/PBS, collected by centrifuging at 300× g at 4° C. for 5 min. The wash was removed and the cells were resuspended in 500 μl 1% BSA/PBS. One drop of Sytox AADvanced ReadyFlow Reagent (ThermoFisher cat #R37173) was added per sample and the samples were analyzed on the Attune NXT Flow Cytometer (ThermoFisher).

[2] = target: T2, Fas/TNFSF6 (R&D Systems, cat. no. 126-FL/CF) (UniProt P48023 134-281); assay: ELISA, antigen coated at 1 µg/ml, Fab titrated
T2 sequence (looked up): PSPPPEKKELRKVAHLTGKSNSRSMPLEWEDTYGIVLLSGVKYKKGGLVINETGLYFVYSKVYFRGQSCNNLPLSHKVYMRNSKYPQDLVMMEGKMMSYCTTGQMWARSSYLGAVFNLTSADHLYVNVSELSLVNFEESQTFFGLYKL

[3] = target: TRAIL/TNFSF10 (R&D Systems, cat. no. 375-TL/CF) (UniProt P50591 114-281); assay: ELISA, antigen coated at 1 µg/ml, Fab titrated
[4] = target: LIGHT/TNFSF14 (R&D Systems, cat. no. 664-LI/CF) (UniProt O43557 74-240); assay: ELISA, antigen coated at 1 µg/ml, Fab titrated
[5] = target: T3, human TL1A (Fitzgerald, Prod. #30R-AT070) (human, UniProt O95150 72-251, limits assumed, biotinylated with EZ-Link Sulfo-NHS-LC-Biotin where used as soluble antigen); assay: capture lift hit at 15 pM b-TL1A, unmutated sequence
T3 construct: also called TNFSF15; biotinylated human TL1A
T3 sequence (looked up): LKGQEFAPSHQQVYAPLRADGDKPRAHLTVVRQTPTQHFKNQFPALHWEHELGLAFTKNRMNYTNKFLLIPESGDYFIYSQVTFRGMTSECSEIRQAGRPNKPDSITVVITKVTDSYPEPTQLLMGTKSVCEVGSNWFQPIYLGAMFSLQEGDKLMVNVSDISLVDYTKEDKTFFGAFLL

Chain of TRAIL/TNFSF10 (R&D Systems, cat. no. 375-TL/CF) (P50591 114-281 limits assumed): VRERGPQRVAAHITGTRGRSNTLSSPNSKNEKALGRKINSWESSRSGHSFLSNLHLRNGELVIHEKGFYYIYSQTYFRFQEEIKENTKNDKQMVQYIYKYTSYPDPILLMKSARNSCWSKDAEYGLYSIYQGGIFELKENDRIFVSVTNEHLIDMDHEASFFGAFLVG
Chain of LIGHT/TNFSF14 (R&D Systems, cat. no. 664-LI/CF) (O43557 74-240 limits assumed): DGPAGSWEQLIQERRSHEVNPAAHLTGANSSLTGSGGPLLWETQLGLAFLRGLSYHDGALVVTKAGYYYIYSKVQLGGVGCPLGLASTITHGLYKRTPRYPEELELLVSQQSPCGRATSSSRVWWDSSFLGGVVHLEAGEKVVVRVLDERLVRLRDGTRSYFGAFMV

B1: Clone L8mod Fab (Fab, V domains shown)
VH: QVQLVQSGAEVKKPGASVKVSCKASGFDIQDTYMHWVRQAPGQGLEWMGRIDPASGHTKYDPKFQGRATITTDTSASTAYLQLSSLRSEDTAVYYCARSGGLPDVWGQGTTVTVSS
VL: EIVLTQSPGTLSLSPGERATLSCRASSSVSYMYWYQQKPGQAPRLLIYATSNLASGIPDRFSGSGSGTDFTLTISRLEPEDFAVYYCQQWSGNPRTFGGGTKLEIK
notes: Fab
B1: binds [1]; no binding [2]; no binding [3]. B1: no binding [4]; binds [5].
